According to US20180147257A1:

Experiments:
Assay in all cases: cell-based or functional assay
HLA-E on YT-1 cells = HLA-E on YT-1 cells (UniProt P13747)
FLT1 on YT-1 cells = FLT1 on YT-1 cells (UniProt P17948)
CD163 on YT-1 cells = CD163 on YT-1 cells (UniProt Q86VB7)
LTβR on YT-1 cells = LTβR on YT-1 cells (UniProt P36941)
ROR2 on YT-1 cells = ROR2 on YT-1 cells (UniProt Q01974)
Chain of ROR2 on YT-1 cells (Q01974 34-943 limits assumed): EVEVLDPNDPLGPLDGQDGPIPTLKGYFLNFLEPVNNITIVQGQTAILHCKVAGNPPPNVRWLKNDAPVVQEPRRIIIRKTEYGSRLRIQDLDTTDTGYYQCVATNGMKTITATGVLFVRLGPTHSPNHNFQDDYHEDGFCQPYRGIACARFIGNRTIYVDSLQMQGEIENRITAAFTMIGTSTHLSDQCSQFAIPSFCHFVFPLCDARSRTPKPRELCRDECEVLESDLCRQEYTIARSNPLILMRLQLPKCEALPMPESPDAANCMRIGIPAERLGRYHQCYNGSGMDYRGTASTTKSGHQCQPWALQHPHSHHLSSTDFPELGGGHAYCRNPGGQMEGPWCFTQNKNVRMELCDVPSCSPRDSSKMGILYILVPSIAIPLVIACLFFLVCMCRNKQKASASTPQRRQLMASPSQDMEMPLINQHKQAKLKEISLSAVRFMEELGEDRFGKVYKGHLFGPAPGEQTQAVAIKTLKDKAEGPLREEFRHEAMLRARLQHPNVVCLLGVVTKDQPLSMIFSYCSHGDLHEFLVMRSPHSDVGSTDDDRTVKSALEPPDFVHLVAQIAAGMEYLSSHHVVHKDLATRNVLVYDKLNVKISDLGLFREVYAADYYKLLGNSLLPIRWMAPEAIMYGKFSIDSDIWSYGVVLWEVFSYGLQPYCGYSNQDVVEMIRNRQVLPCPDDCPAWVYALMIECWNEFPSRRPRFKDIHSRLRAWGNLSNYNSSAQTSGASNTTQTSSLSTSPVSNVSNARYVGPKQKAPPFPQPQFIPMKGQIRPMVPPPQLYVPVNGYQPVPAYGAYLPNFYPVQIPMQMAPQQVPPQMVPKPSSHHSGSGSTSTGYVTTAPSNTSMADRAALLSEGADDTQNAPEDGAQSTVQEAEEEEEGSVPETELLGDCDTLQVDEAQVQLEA

Chain of CD163 on YT-1 cells (Q86VB7 42-1156): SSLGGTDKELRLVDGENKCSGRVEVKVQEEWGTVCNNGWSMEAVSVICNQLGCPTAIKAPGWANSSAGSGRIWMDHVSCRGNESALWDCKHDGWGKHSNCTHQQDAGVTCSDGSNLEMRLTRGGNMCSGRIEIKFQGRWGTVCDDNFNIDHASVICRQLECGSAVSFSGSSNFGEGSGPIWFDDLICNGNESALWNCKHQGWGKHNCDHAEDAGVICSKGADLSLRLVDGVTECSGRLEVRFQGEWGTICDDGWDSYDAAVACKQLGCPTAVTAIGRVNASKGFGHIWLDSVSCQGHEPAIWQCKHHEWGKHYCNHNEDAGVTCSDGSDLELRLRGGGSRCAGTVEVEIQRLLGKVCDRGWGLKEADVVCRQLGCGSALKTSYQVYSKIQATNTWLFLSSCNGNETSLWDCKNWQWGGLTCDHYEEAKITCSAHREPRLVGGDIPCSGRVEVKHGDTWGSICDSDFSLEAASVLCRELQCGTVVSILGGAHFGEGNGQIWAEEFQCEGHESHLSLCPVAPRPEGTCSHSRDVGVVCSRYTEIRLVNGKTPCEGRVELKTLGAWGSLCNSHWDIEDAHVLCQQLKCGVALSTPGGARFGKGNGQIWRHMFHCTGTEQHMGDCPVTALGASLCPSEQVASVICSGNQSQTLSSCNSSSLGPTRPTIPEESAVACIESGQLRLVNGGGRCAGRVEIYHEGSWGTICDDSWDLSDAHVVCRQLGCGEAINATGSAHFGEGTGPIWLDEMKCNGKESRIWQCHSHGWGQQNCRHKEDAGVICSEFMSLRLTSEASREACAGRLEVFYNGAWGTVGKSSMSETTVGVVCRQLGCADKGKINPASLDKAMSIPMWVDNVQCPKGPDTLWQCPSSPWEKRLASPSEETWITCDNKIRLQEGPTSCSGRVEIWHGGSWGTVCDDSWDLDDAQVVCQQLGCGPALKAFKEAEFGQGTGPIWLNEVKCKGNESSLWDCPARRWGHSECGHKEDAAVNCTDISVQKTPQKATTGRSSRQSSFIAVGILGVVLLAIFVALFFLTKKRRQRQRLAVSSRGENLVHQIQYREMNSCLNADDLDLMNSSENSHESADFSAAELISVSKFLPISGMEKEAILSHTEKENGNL
Chain of LTβR on YT-1 cells (P36941 31-435 limits assumed): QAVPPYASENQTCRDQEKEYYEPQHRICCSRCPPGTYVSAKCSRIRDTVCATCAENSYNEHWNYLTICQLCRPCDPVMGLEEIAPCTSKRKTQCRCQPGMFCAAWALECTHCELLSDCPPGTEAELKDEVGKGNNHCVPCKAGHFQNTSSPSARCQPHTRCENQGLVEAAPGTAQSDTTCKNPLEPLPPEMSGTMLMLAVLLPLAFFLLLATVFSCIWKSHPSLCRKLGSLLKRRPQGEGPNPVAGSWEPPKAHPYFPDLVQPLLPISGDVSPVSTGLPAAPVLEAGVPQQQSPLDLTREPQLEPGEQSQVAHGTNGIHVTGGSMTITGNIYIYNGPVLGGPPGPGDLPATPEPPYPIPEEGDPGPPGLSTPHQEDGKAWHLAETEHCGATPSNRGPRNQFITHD
Chain of HLA-E on YT-1 cells (P13747 22-358 limits assumed): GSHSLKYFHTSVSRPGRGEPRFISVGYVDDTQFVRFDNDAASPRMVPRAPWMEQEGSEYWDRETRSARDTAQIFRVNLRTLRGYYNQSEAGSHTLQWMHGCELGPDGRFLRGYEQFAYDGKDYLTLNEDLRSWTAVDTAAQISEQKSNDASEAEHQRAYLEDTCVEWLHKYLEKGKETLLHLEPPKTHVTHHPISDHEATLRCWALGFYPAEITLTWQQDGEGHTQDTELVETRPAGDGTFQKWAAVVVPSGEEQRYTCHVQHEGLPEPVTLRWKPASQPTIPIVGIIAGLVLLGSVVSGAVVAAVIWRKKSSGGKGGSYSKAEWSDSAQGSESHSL
Chain of FLT1 on YT-1 cells (P17948 27-1338 limits assumed): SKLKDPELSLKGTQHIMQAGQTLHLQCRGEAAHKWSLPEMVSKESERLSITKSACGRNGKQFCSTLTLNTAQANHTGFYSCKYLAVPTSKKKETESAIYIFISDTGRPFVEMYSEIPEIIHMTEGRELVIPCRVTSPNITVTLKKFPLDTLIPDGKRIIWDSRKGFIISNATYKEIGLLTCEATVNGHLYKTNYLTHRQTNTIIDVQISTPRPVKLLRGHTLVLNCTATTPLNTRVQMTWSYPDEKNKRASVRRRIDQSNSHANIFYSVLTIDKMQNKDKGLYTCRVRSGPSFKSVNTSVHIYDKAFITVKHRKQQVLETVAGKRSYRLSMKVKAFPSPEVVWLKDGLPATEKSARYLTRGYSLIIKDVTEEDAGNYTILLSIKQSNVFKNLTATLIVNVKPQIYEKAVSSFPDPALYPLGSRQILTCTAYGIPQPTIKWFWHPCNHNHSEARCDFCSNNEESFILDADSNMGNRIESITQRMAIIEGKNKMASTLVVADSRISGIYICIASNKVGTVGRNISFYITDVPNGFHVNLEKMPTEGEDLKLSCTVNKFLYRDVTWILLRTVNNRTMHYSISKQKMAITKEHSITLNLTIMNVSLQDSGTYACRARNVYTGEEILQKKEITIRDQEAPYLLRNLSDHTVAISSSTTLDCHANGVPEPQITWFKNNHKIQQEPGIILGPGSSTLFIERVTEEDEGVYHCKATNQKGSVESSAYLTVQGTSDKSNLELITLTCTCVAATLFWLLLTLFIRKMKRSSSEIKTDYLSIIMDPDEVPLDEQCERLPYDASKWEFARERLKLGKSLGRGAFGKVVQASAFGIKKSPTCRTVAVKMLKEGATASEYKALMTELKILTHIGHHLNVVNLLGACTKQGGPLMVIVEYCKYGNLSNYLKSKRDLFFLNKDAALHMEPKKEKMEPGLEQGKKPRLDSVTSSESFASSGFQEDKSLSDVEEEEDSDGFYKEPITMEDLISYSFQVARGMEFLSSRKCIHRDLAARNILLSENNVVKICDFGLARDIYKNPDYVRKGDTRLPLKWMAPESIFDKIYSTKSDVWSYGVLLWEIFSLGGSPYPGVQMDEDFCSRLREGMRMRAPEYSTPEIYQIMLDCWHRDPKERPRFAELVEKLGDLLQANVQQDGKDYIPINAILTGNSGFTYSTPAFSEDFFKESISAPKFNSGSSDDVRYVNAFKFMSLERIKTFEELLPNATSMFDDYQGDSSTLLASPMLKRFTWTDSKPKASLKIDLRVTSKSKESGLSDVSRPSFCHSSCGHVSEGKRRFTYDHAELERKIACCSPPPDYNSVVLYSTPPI

Log 10 fold change of sgRNAs in YT-1 GeCKO library cells sorted for non-binding to BTN3A-IgG4 (Log 10 fold change) (HLA-E on YT-1 cells): 3.66
Log 10 fold change of sgRNAs in YT-1 GeCKO library cells sorted for non-binding to BTN3A-IgG4 (Log 10 fold change) (FLT1 on YT-1 cells): 3.7
Log 10 fold change of sgRNAs in YT-1 GeCKO library cells sorted for non-binding to BTN3A-IgG4 (Log 10 fold change) (CD163 on YT-1 cells): 3.56
Log 10 fold change of sgRNAs in YT-1 GeCKO library cells sorted for non-binding to BTN3A-IgG4 (Log 10 fold change) (LTβR on YT-1 cells): 3.69
Log 10 fold change of sgRNAs in YT-1 GeCKO library cells sorted for non-binding to BTN3A-IgG4 (Log 10 fold change) (ROR2 on YT-1 cells): 3.54
Substance: fluorescently coupled BTN3A ectodomain fused to the Fc fragment of human IgG4 (Fc fusion)
